Test results: the supplement of paper PMC5998384

Key:
HeLa Kyoto [1] = assay: solubility in G1/S (NP-40 vs SDS abundance) (log2 ratio); higher = more soluble; conditions: cell cycle stage: G1/S
HeLa Kyoto [2] = assay: melting temperature (median over replicates), in situ; higher = more thermally stable
HeLa Kyoto [3] = assay: solubility change mitosis vs G1/S (difference of NP-40 vs SDS log2 ratios) (log2 ratio difference); higher = more soluble in mitosis
HeLa Kyoto [4] = assay: thermal stability score vs G1/S (z-score of summed log2 fold changes over temperatures); higher = more thermally stable than in G1/S
[5] = cell cycle stage: early G1 (4.5 h after nocodazole release)
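Throughout, for melting temperature (median over replicates), in situ: HeLa Kyoto cells synchronized by double thymidine or nocodazole block, proteins quantified by TMT10plex mass spectrometry, three independent biological replicates.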
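Throughout, for solubility change mitosis vs G1/S (difference of NP-40 vs SDS log2 ratios): synchronized HeLa Kyoto cells (double thymidine block for G1/S, nocodazole release for mitosis), protein amounts in NP-40 versus SDS lysates quantified by mass spectrometry, three biological replicates.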
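Throughout, for solubility in G1/S (NP-40 vs SDS abundance): HeLa Kyoto cells arrested at G1/S by double thymidine block, proteins quantified by TMT10plex mass spectrometry in mild NP-40 versus SDS extracts, three biological replicates.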
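Throughout, for thermal stability score vs G1/S (z-score of summed log2 fold changes over temperatures): synchronized HeLa Kyoto cells, proteins quantified by TMT10plex mass spectrometry, three biological replicates, mitosis taken 0.5 h after nocodazole release, G1/S directly after double thymidine block.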

Row | Sequence | solubility in G1/S (log2) (HeLa Kyoto [1]) | melting temperature (HeLa Kyoto [2]; cell cycle stage: G1/S) [°C] | solubility change mitosis (log2) (HeLa Kyoto [3]) | thermal stability score (HeLa Kyoto [4]; [5]) | thermal stability score (HeLa Kyoto [4]; cell cycle stage: mitosis) | melting temperature (HeLa Kyoto [2]; cell cycle stage: mitosis) [°C]
1 | MAGARAAAAAASAGSSASSGNQPPQELGLGELLEEFSRTQYRAKDGSGTGGSKVERIEKRCLELFGRDYCFSVIPNTNGDICGHYPRHIVFLEYESSEKEKDTFESTVQVSKLQDLIHRSKMARCRGRFVCPVILFKGKHICRSATLAGWGELYGRSGYNYFFSGGADDAWADVEDVTEEDCALRSGDTHLFDKVRGYDIKLLRYLSVKYICDLMVENKKVKFGMNVTSSEKVDKAQRYADFTLLSIPYPGCEFFKEYKDRDYMAEGLIFNWKQDYVDAPLSIPDFLTHSLNIDWSQYQCWDLVQQTQNYLKLLLSLVNSDDDSGLLVHCISGWDRTPLFISLLRLSLWADGLIHTSLKPTEILYLTVAYDWFLFGHMLVDRLSKGEEIFFFCFNFLKHITSEEFSALKTQRRKSLPARDGGFTLEDICMLRRKDRGSTTSLGSDFSLVMESSPGATGSFTYEAVELVPAGAPTQAAWRKSHSSSPQSVLWNRPQPSEDRLPSQQGLAEARSSSSSSSNHSDNFFRMGSSPLEVPKPRSVDHPLPGSSLSTDYGSWQMVTGCGSIQERAVLHTDSSLPFSFPDELPNSCLLAALSDRETRLQEVRSAFLAAYSSTVGLRAVAPSPSGAIGGLLEQFARGVGLRSISSNAL [MTMR14] | -0.145 | 52.8 | -0.0972 | -0.497 | -0.428 | 
2 | MAGASVKVAVRVRPFNARETSQDAKCVVSMQGNTTSIINPKQSKDAPKSFTFDYSYWSHTSTEDPQFASQQQVYRDIGEEMLLHAFEGYNVCIFAYGQTGAGKSYTMMGRQEPGQQGIVPQLCEDLFSRVSENQSAQLSYSVEVSYMEIYCERVRDLLNPKSRGSLRVREHPILGPYVQDLSKLAVTSYADIADLMDCGNKARTVAATNMNETSSRSHAVFTIVFTQRCHDQLTGLDSEKVSKISLVDLAGSERADSSGARGMRLKEGANINKSLTTLGKVISALADMQSKKRKSDFIPYRDSVLTWLLKENLGGNSRTAMIAALSPADINYEETLSTLRYADRTKQIRCNAIINEDPNARLIRELQEEVARLRELLMAQGLSASALEGLKTEEGSVRGALPAVSSPPAPVSPSSPTTHNGELEPSFSPNTESQIGPEEAMERLQETEKIIAELNETWEEKLRKTEALRMEREALLAEMGVAVREDGGTVGVFSPKKTPHLVNLNEDPLMSECLLYHIKDGVTRVGQVDMDIKLTGQFIREQHCLFRSIPQPDGEVVVTLEPCEGAETYVNGKLVTEPLVLKSGNRIVMGKNHVFRFNHPEQARLERERGVPPPPGPPSEPVDWNFAQKELLEQQGIDIKLEMEKRLQDLENQYRKEKEEADLLLEQQRLYADSDSGDDSDKRSCEESWRLISSLREQLPPTTVQTIVKRCGLPSSGKRRAPRRVYQIPQRRRLQGKDPRWATMADLKMQAVKEICYEVALADFRHGRAEIEALAALKMRELCRTYGKPDGPGDAWRAVARDVWDTVGEEEGGGAGSGGGSEEGARGAEVEDLRAHIDKLTGILQEVKLQNSSKDRELQALRDRMLRMERVIPLAQDHEDENEEGGEVPWAPPEGSEAAEEAAPSDRMPSARPPSPPLSSWERVSRLMEEDPAFRRGRLRWLKQEQLRLQGLQGSGGRGGGLRRPPARFVPPHDCKLRFPFKSNPQHRESWPGMGSGEAPTPLQPPEEVTPHPATPARRPPSPRRSHHPRRNSLDGGGRSRGAGSAQPEPQHFQPKKHNSYPQPPQPYPAQRPPGPRYPPYTTPPRMRRQRSAPDLKESGAAV [KIF1C] | -0.0137 | 48.5 | -0.0384 | 0.369 | 0.754 | 50.2
3 | MAGDLSAGFFMEELNTYRQKQGVVLKYQELPNSGPPHDRRFTFQVIIDGREFPEGEGRSKKEAKNAAAKLAVEILNKEKKAVSPLLLTTTNSSEGLSMGNYIGLINRIAQKKRLTVNYEQCASGVHGPEGFHYKCKMGQKEYSIGTGSTKQEAKQLAAKLAYLQILSEETSVKSDYLSSGSFATTCESQSNSLVTSTLASESSSEGDFSADTSEINSNSDSLNSSSLLMNGLRNNQRKAKRSLAPRFDLPDMKETKYTVDKRFGMDFKEIELIGSGGFGQVFKAKHRIDGKTYVIKRVKYNNEKAEREVKALAKLDHVNIVHYNGCWDGFDYDPETSDDSLESSDYDPENSKNSSRSKTKCLFIQMEFCDKGTLEQWIEKRRGEKLDKVLALELFEQITKGVDYIHSKKLIHRDLKPSNIFLVDTKQVKIGDFGLVTSLKNDGKRTRSKGTLRYMSPEQISSQDYGKEVDLYALGLILAELLHVCDTAFETSKFFTDLRDGIISDIFDKKEKTLLQKLLSKKPEDRPNTSEILRTLTVWKKSPEKNERHTC [EIF2AK2] | -0.283 | 47.1 | -0.0511 | 1.01 | 3.12 | 48
4 | MAGFWVGTAPLVAAGRRGRWPPQQLMLSAALRTLKHVLYYSRQCLMVSRNLGSVGYDPNEKTFDKILVANRGEIACRVIRTCKKMGIKTVAIHSDVDASSVHVKMADEAVCVGPAPTSKSYLNMDAIMEAIKKTRAQAVHPGYGFLSENKEFARCLAAEDVVFIGPDTHAIQAMGDKIESKLLAKKAEVNTIPGFDGVVKDAEEAVRIAREIGYPVMIKASAGGGGKGMRIAWDDEETRDGFRLSSQEAASSFGDDRLLIEKFIDNPRHIEIQVLGDKHGNALWLNERECSIQRRNQKVVEEAPSIFLDAETRRAMGEQAVALARAVKYSSAGTVEFLVDSKKNFYFLEMNTRLQVEHPVTECITGLDLVQEMIRVAKGYPLRHKQADIRINGWAVECRVYAEDPYKSFGLPSIGRLSQYQEPLHLPGVRVDSGIQPGSDISIYYDPMISKLITYGSDRTEALKRMADALDNYVIRGVTHNIALLREVIINSRFVKGDISTKFLSDVYPDGFKGHMLTKSEKNQLLAIASSLFVAFQLRAQHFQENSRMPVIKPDIANWELSVKLHDKVHTVVASNNGSVFSVEVDGSKLNVTSTWNLASPLLSVSVDGTQRTVQCLSREAGGNMSIQFLGTVYKVNILTRLAAELNKFMLEKVTEDTSSVLRSPMPGVVVAVSVKPGDAVAEGQEICVIEAMKMQNSMTAGKTGTVKSVHCQAGDTVGEGDLLVELE [PCCA] | 0.0361 | 53.7 | -0.122 | -0.863 | -1.1 | 53.1
